Experimental findings from patent US9221867B2, “Method for transporting a compound across the blood-brain barrier” (Angiochem Inc., priority 2003, dated 2015) are described below.

In data set [1] the test system is bovine brain capillary endothelial cells (BBCECs). Description: Transcytosis of 125I-proteins across BBCEC monolayers (in vitro blood-brain barrier model). The settings on record: for Ratios (x-fold), 125I-proteins transcytosis across BBCEC monolayers: 250 nM; for Ratios (x-fold), 125I-proteins transcytosis across BBCEC monolayers / Ratios Aprotinin/Protein: aprotinin transcytosis divided by that of the named protein; for Transcytosis: across in vitro BBB model.
Description: The model consists of a co-culture of bovine brain capillary endothelial cells and rat glial cells.
The in vitro model of BBB was established by using a co-culture of BBCECs and astrocytes. Prior to cell culture, plate inserts (Millicell-PC 3.0 μM; 30-mm diameter) were coated on the upper side with rat tail collagen. They were then set in six-well microplates containing the astrocytes and BBCECs were plated on the upper side of the filters in 2 mL of co-culture medium. This BBCEC medium was changed three times a week. Under these conditions, differentiated BBCECs formed a confluent monolayer 7 days later. Experiments were performed between 5 and 7 days after confluence was reached. The permeability coefficient for sucrose was measured to verify the endothelial permeability.
Briefly, after removing the meninges, the brain tissue was forced gently through a 82 μm nylon sieve. Astrocytes were plated on six-well microplates at a concentration of 1.2×10^5 cells/mL in 2 mL of optimal culture medium (DMEM) supplemented with 10% heat inactivated fetal bovine serum. The medium was changed twice a week.
Bovine brain capillary endothelial cells (BBCECs) were obtained from Cellial Technologies. The cells were cultured in the presence of DMEM medium supplemented with 10% (v/v) horse serum and 10% heat-inactivated calf serum, 2 mM of glutamine, 50 μg/mL of gentamycin, and 1 ng/mL of basic fibroblast growth factor, added every other day.
One insert covered with BBCECs was set into a six-well microplate with 2 mL of Ringer-Hepes and was pre-incubated for 2 h at 37° C. [^125I]-aprotinin, [^125I]-p97, [^125I]-ceruloplasmin or [^125I]-transferrin (250 nM final concentration) was added to the upper side of the filter covered with cells. At various times, the insert was transferred to another well to avoid a possible reendocytosis of [^125I]-proteins by the abluminal side of the BBCECs. At the end of experiment, [^125I]-proteins were assessed in 500 μL of the lower chamber of well by TCA precipitation.
Aprotinin, p97 and bovine holo-transferrin were iodinated with standard procedures using iodo-beads from Sigma™. Bovine holo-transferrin was diluted in 0.1M phosphate buffer, pH 6.5 (PB). P97 obtained from Synapse Technologies in neutralized citrate at pH 7.0 was dialyzed against this PB. Two iodo-beads were used for each protein. These beads were washed twice with 3 mL of PB on a Whatman™ filter and resuspended in 60 μL of PB. ^125I (1 mCi) from Amersham-Pharmacia biotech was added to the bead suspension for 5 minutes at room temperature. The iodination for each protein was initiated by the addition of 100 μg (80-100 μL).

In data set [2] the test system is endothelial cell monolayers (in vitro blood-brain barrier model). Description: Permeability coefficient (Pe) of proteins in the in vitro blood-brain barrier model.
Description: The permeability coefficient (Pe) was calculated as:
At the end of the experiments, amounts of the radiotracers in the basolateral compartment were measured in a liquid scintillation counter. The permeability coefficient (Pe) for sucrose was calculated as previously described (Dehouck, M. P., Jolliet-Riant, P., Brée, F., Fruchart, J. C., Cecchelli, R., Tillement, J. P., J. Neurochem. 58:1790-1797, 1992) using filters coated or non-coated with EC.
The transport of Angio-pep1 from the apical-to-basolateral side of inserts covered with or without endothelial cell monolayers was measured. The results are expressed as the clearance of Angio-pep1 as a function of time. The slopes correspond to the permeability of the peptide through the filter alone (Psf) and to the total permeability of the endothelial cell monolayers (Pst).
The permeability coefficients for Angio-pep1, aprotinin, leptin and transferrin were determined using the in vitro blood-brain barrier model. The permeability coefficient (Pe) was calculated as described above.

B1: receptor-associated protein (RAP): LRP antagonist, receptor-associated protein (protein, UniProt P30533 35-357, looked up)
Alpha-2-macroglobulin …: YSREKNQPKPSPKRESGEEFRMEKLNQLWEKAQRLHLPPVRLAELHADLKIQERDELAWKKLKLDGLDEDGEKEARLIRNLNVILAKYGLDGKKDARQVTSNSLSGTQEDGLDDPRLEKLWHKAKTSGKFSGEELDKLWREFLHHKEKVHEYNVLLETLSRTEEIHENVISPSDLSDIKGSVLHSRHTELKEKLRSINQGLDRLRRVSHQGYSTEAEFEEPRVIDLWDLAQSANLTDKELEAFREELKHFEAKIEKHNHYQKQLEIAHEKLRHAESVGDGERVSRSREKHALLEGRTKELGYTVKKHLQDLSGRISRARHNEL
With B1, the “effect on aprotinin transcytosis” value in data set [1] ([125I]-aprotinin 250 nM with or without RAP, 37° C., FIG. 14) is reported as “inhibition”.

B2: Transferrin: comparison protein, bovine holo-transferrin (protein, UniProt Q29443 20-704, looked up)
Serotransferrin: DPERTVRWCTISTHEANKCASFRENVLRILESGPFVSCVKKTSHMDCIKAISNNEADAVTLDGGLVYEAGLKPNNLKPVVAEFHGTKDNPQTHYYAVAVVKKDTDFKLNELRGKKSCHTGLGRSAGWNIPMAKLYKELPDPQESIQRAAANFFSASCVPCADQSSFPKLCQLCAGKGTDKCACSNHEPYFGYSGAFKCLMEGAGDVAFVKHSTVFDNLPNPEDRKNYELLCGDNTRKSVDDYQECYLAMVPSHAVVARTVGGKEDVIWELLNHAQEHFGKDKPDNFQLFQSPHGKDLLFKDSADGFLKIPSKMDFELYLGYEYVTALQNLRESKPPDSSKDECMVKWCAIGHQERTKCDRWSGFSGGAIECETAENTEECIAKIMKGEADAMSLDGGYLYIAGKCGLVPVLAENYKTEGESCKNTPEKGYLAVAVVKTSDANINWNNLKDKKSCHTAVDRTAGWNIPMGLLYSKINNCKFDEFFSAGCAPGSPRNSSLCALCIGSEKGTGKECVPNSNERYYGYTGAFRCLVEKGDVAFVKDQTVIQNTDGNNNEAWAKNLKKENFEVLCKDGTRKPVTDAENCHLARGPNHAVVSRKDKATCVEKILNKQQDDFGKSVTDCTSNFCLFQSNSKDLLFRDDTKCLASIAKKTYDSYLGDDYVRAMTNLRQCSTSKLLEACTFHKP
modifications: holo (iron-loaded)
With B2, in data set [1], the “Ratios (x-fold), 125I-proteins transcytosis across BBCEC monolayers” value (shortened to “Ratios (x-fold)”) amounted to 11.6 x-fold; the Transcytosis turned out to be 0.14 pmol/h/cm^2; the “Ratios Aprotinin/Protein” value is listed as 19. Besides, the “Ratios (permeability coefficients)” value in data set [2] (Pe of Angio-pep1 divided by Pe of the named protein) worked out at 210. In addition, in data set [2] (in vitro blood-brain barrier model), the “Permeability coefficient (Pe)” value was 0.095 ×10⁻⁶ cm/s.

B3: ceruloplasmin: comparison protein in transcytosis experiments (protein, UniProt P00450 20-1065, looked up)
Ceruloplasmin: KEKHYYIGIIETTWDYASDHGEKKLISVDTEHSNIYLQNGPDRIGRLYKKALYLQYTDETFRTTIEKPVWLGFLGPIIKAETGDKVYVHLKNLASRPYTFHSHGITYYKEHEGAIYPDNTTDFQRADDKVYPGEQYTYMLLATEEQSPGEGDGNCVTRIYHSHIDAPKDIASGLIGPLIICKKDSLDKEKEKHIDREFVVMFSVVDENFSWYLEDNIKTYCSEPEKVDKDNEDFQESNRMYSVNGYTFGSLPGLSMCAEDRVKWYLFGMGNEVDVHAAFFHGQALTNKNYRIDTINLFPATLFDAYMVAQNPGEWMLSCQNLNHLKAGLQAFFQVQECNKSSSKDNIRGKHVRHYYIAAEEIIWNYAPSGIDIFTKENLTAPGSDSAVFFEQGTTRIGGSYKKLVYREYTDASFTNRKERGPEEEHLGILGPVIWAEVGDTIRVTFHNKGAYPLSIEPIGVRFNKNNEGTYYSPNYNPQSRSVPPSASHVAPTETFTYEWTVPKEVGPTNADPVCLAKMYYSAVEPTKDIFTGLIGPMKICKKGSLHANGRQKDVDKEFYLFPTVFDENESLLLEDNIRMFTTAPDQVDKEDEDFQESNKMHSMNGFMYGNQPGLTMCKGDSVVWYLFSAGNEADVHGIYFSGNTYLWRGERRDTANLFPQTSLTLHMWPDTEGTFNVECLTTDHYTGGMKQKYTVNQCRRQSEDSTFYLGERTYYIAAVEVEWDYSPQREWEKELHHLQEQNVSNAFLDKGEFYIGSKYKKVVYRQYTDSTFRVPVERKAEEEHLGILGPQLHADVGDKVKIIFKNMATRPYSIHAHGVQTESSTVTPTLPGETLTYVWKIPERSGAGTEDSACIPWAYYSTVDQVKDLYSGLIGPLIVCRRPYLKVFNPRRKLEFALLFLVFDENESWYLDDNIKTYSDHPEKVNKDDEEFIESNKMHAINGRMFGNLQGLTMHVGDEVNWYLMGMGNEIDLHTVHFHGHSFQYKHRGVYSSDVFDIFPGTYQTLEMFPRTPGIWLLHCHVTDHIHAGMETTYTVLQNEDTKSG
Regarding B3, in data set [1], the “Ratios (x-fold)” value was found to be 44.0 x-fold.

B4: Melanotransferrin (p97): comparison protein, p97 obtained from Synapse Technologies (protein, UniProt P08582 20-709, looked up)
Melanotransferrin: GMEVRWCATSDPEQHKCGNMSEAFREAGIQPSLLCVRGTSADHCVQLIAAQEADAITLDGGAIYEAGKEHGLKPVVGEVYDQEVGTSYYAVAVVRRSSHVTIDTLKGVKSCHTGINRTVGWNVPVGYLVESGRLSVMGCDVLKAVSDYFGGSCVPGAGETSYSESLCRLCRGDSSGEGVCDKSPLERYYDYSGAFRCLAEGAGDVAFVKHSTVLENTDGKTLPSWGQALLSQDFELLCRDGSRADVTEWRQCHLARVPAHAVVVRADTDGGLIFRLLNEGQRLFSHEGSSFQMFSSEAYGQKDLLFKDSTSELVPIATQTYEAWLGHEYLHAMKGLLCDPNRLPPYLRWCVLSTPEIQKCGDMAVAFRRQRLKPEIQCVSAKSPQHCMERIQAEQVDAVTLSGEDIYTAGKTYGLVPAAGEHYAPEDSSNSYYVVAVVRRDSSHAFTLDELRGKRSCHAGFGSPAGWDVPVGALIQRGFIRPKDCDVLTAVSEFFNASCVPVNNPKNYPSSLCALCVGDEQGRNKCVGNSQERYYGYRGAFRCLVENAGDVAFVRHTTVFDNTNGHNSEPWAAELRSEDYELLCPNGARAEVSQFAACNLAQIPPHAVMVRPDTNIFTVYGLLDKAQDLFGDDHNKNGFKMFDSSNYHGQDLLFKDATVRAVPVGEKTTYRGWLGLDYVAALEGMSSQQC
With B4, in data set [1], the “Ratios (x-fold)” value was found to be 8.2 x-fold; the Transcytosis is reported as 0.28 pmol/h/cm^2; the “Ratios Aprotinin/Protein” value was determined as 10.

B5: Lactoferrin: comparison protein in transcytosis experiment (protein, UniProt P02788 20-710, looked up)
Lactotransferrin: GRRRSVQWCAVSQPEATKCFQWQRNMRKVRGPPVSCIKRDSPIQCIQAIAENRADAVTLDGGFIYEAGLAPYKLRPVAAEVYGTERQPRTHYYAVAVVKKGGSFQLNELQGLKSCHTGLRRTAGWNVPIGTLRPFLNWTGPPEPIEAAVARFFSASCVPGADKGQFPNLCRLCAGTGENKCAFSSQEPYFSYSGAFKCLRDGAGDVAFIRESTVFEDLSDEAERDEYELLCPDNTRKPVDKFKDCHLARVPSHAVVARSVNGKEDAIWNLLRQAQEKFGKDKSPKFQLFGSPSGQKDLLFKDSAIGFSRVPPRIDSGLYLGSGYFTAIQNLRKSEEEVAARRARVVWCAVGEQELRKCNQWSGLSEGSVTCSSASTTEDCIALVLKGEADAMSLDGGYVYTAGKCGLVPVLAENYKSQQSSDPDPNCVDRPVEGYLAVAVVRRSDTSLTWNSVKGKKSCHTAVDRTAGWNIPMGLLFNQTGSCKFDEYFSQSCAPGSDPRSNLCALCIGDEQGENKCVPNSNERYYGYTGAFRCLAENAGDVAFVKDVTVLQNTDGNNNEAWAKDLKLADFALLCLDGKRKPVTEARSCHLAMAPNHAVVSRMDKVERLKQVLLHQQAKFGRNGSDCPDKFCLFQSETKNLLFNDNTECLARLHGKTTYEKYLGPQYVAGITNLKKCSTSPLLEACEFLRK
For B5, in data set [1], the Transcytosis is on record as 0.05 pmol/h/cm^2 and the “Ratios Aprotinin/Protein” value was 50.
